Biological target: the molecule itself
Assay: crystal structure; diFe-SulE crystals grown anoxically in 0.1 M bis-Tris pH 5.5, 24% (w/v) PEG 3350 at 293 K, treated with 100 mM H2O2; data at 100 K; space group P63; three data sets at 5%, 10% and 100% beamline flux

B1: Sulfolobus tokodaii sulerythrin reconstituted with ferrous iron (diFe-SulE) (natural protein, UniProt F9VPE5 1-144, looked up)
chain: MKDLKGTKTAENLKQGFIGESMANRRYLYFAKRADEEGYPEIAGLLRSIAEGETAHAFGHLDFIRQGGLTDPATDKPIGTLEQMIESAIAGETYEWTQMYPGFAKVAREEGFPEVAEWFETLARAEKSHAEKFQNVLKQLKGGT
notes: Sulerythrin (SulE), Sulfolobus tokodaii, UniProt F9VPE5, residues 1-145; synthetic gene in pET-28a with an N-terminal Strep-tag and a TEV protease site; Domain-swapped homodimer; each of its two binuclear metal sites holds two iron ions (four in all); Crystals were treated with 100 mM H2O2; not shown: Strep-tag, N-terminal, cleaved
- stoichiometry N: 2

From publication PMC8805299, “Determining the oxidation state of elements by X-ray crystallography” (Acta Crystallographica. Section D, Structural Biology, 2022)
